Reference: patent publication US20070036794A1 (Genentech, published 2007)
Positions count from the first letter of the chain named.

B1: anti-trkC agonist monoclonal antibody 2253 (antibody, mouse IgG1, V domains shown)
VH: QVQLQQSGAELMQPGASVKISCKSTGYTFSNFWIEWVKQRPGHGLEWIGEILPGSDNTNYNEKFKGKATFTADTSSNTAYMQLSSLTSEDSAVYYCARKNRNYYGNYVVWGAGTTLTVSS
VL: QIVLTQSPAIMSASPGEKVTITCSASSSVSYMYWFQQKPGTSPKLWIYSTSNLASGVPARFSGSGSGTSYSLTISRMEAEDAATYYCQQRSSYPLTFGAGTKLELKR
notes: murine IgG1; heavy chain subgroup IIA, light chain kappa IV
B2: anti-trkC agonist monoclonal antibody 2345 (antibody, human IgG2, V domains shown)
VH: QVQLQESGPGLVKPSQTLSLTCTVSGGSISSGGYYWSWIRQHPEKGLEWIGYIFYSGRTYYNPSLKSRVTISVDTSKNQFSLKLNSVTAADTAVYYCARERIAAAGADYYYNGLDVWGQGTTVTVSS
VL: EIVLTQSPGTLSLSPGERATLSCRASQSVSSNYLTWYQQKPGQAPRLLIYGASSRATGIPDRFSGSGSGTDFTLTISRLEPEDFAVYYCQQYGRSPPITFGQGTRLEIKR
notes: human IgG2 from Xenomouse hybridoma; heavy chain subgroup II, light chain kappa III
B3: anti-trkC agonist monoclonal antibody 2349 (antibody, human IgG4, V domains shown)
VH: B2 VH with G33Y, E44G, F54Y, R58S, V69L, N85S, A107T, D115A
VL: B2 VL with E1G, L21F, V29G, N32T, T35A
notes: human IgG4 from Xenomouse hybridoma; heavy chain subgroup II, light chain kappa III
B4: anti-trkC agonist monoclonal antibody 6.4.1 (antibody, human IgG2, V domains shown)
VH: QVQLQESGPGLVRPSETLSLTCTVSGGSISTYYWNWIRQPAGKGLEWIGRIYTSGSTNYNPSLKSRVTMSVDTSKNQFSLKLSSVTAADTAVYYCARDGGYSNPFDWGQGTLVTVSS
VL: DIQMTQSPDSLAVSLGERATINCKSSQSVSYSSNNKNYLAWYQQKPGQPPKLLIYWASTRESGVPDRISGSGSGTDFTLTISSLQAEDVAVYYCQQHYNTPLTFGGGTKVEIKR
notes: human IgG2 from Xenomouse hybridoma; heavy chain subgroup II, light chain kappa I; also called Mab 6.4.1
B5: anti-trkC agonist monoclonal antibody 2256 (antibody, mouse IgG1, V domains shown)
VH: QVQLQQPGAELVKPGASVKLSCKASGYTFTSYWMHWVKQRPGQGLEWIGEIYPSNGRTNYNEKFKSKATLTVDKSSSTAYMQLSSLTSEDSAVYYCARKYYYGNSYRSWYFDVWGAGTTLTVSS
VL: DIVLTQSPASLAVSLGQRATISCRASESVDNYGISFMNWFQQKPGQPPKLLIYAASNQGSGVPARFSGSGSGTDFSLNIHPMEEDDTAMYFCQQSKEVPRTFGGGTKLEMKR
notes: murine IgG1; heavy chain subgroup IIA, light chain kappa III
B6: neurotrophin-3 (NT-3) (ligand, UniProt P20783 139-257, looked up)
chain: YAEHKSHRGEYSVCDSESLWVTDKSSAIDIRGHQVTVLGEIKTGNSPVKQYFYETRCKEARPVKNGCRGIDDKHWNSQCKTSQTYVRALTSENNKLVGWRWIRIDTSCVCALSRKIGRT

These binders were tested against T1, gD-tagged trkC (human trkC-gD) (human, UniProt Q16288 32-429) (assay: SPR (BIAcore), summary table).
T1 construct: purified antigen of the ELISAs and SPR; also called gD-trkC
T1 sequence (Q16288 32-429 S70N): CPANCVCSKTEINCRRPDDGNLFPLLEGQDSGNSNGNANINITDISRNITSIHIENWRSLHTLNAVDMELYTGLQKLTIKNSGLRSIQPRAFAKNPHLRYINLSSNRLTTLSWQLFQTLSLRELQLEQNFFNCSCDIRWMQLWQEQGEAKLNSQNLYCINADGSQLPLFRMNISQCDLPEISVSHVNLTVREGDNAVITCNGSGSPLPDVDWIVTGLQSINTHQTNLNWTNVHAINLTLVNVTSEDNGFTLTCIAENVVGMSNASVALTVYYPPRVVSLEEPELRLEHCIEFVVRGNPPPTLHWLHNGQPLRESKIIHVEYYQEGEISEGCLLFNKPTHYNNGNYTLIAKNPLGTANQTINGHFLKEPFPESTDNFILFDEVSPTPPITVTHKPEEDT

Binder	Kd [nM]
B1	42
B2	12.1
B3	23
B4	12
B5	62

Each binder was assayed against T2, trkC fused with a gD flag epitope, on stably transfected CHO cells (KIRA) (assay: cell-based or functional assay).

Binder	EC50 (read off the curve), trkC tyrosine phosphorylation, KIRA [nM]
B2	~2
B3	~3
B4	~3
B6	5 to 9

Target: T2, trkC fused with a gD flag epitope, on …
Experiment: cell-based or functional assay
Remark: another data set of the same source

Binder	EC50 (read off the curve), trkC tyrosine phosphorylation, KIRA [nM]
B5	~4
B6	5 to 9

These binders were tested against T3, trkC mutant L284E (human, UniProt Q16288 32-429, limits assumed) (assay: binding titration on trkC point mutants).
T3 construct: point mutant in domain 5
T3 sequence (Q16288 32-429 S70N/L315E limits assumed): as the sequence (Q16288 32-429 S70N) above, with L284E counted along it

Binder	ratio EC50 mutant/EC50 wildtype trkC [ratio]
B1	0.7
B5	1.1

The binders below were run against T4, trkC mutant R285A (human, UniProt Q16288 32-429, limits assumed) (assay: binding titration on trkC point mutants).
T4 construct: point mutant in domain 5
T4 sequence (Q16288 32-429 S70N/R316A limits assumed): as the sequence (Q16288 32-429 S70N) above, with R285A counted along it

Binder	ratio EC50 mutant/EC50 wildtype trkC [ratio]
B1	0.9
B2	1
B3	0.9
B4	0.8

These binders were tested against T5, trkC mutant L286H (human, UniProt Q16288 32-429, limits assumed) (assay: binding titration on trkC point mutants).
T5 construct: point mutant in domain 5
T5 sequence (Q16288 32-429 S70N/L317H limits assumed): as the sequence (Q16288 32-429 S70N) above, with L286H counted along it

Binder	ratio EC50 mutant/EC50 wildtype trkC [ratio]
B1	0.4
B2	0.5
B3	0.6
B5	0.6

What follows are binders tested against T6, trkC mutant E287K (human, UniProt Q16288 32-429, limits assumed) (assay: binding titration on trkC point mutants).
T6 construct: point mutant in domain 5
T6 sequence (Q16288 32-429 S70N/E318K limits assumed): as the sequence (Q16288 32-429 S70N) above, with E287K counted along it

Binder	ratio EC50 mutant/EC50 wildtype trkC [ratio]
B1	0.7
B5	0.7

Each binder was assayed against T7, trkC mutant H318A (human, UniProt Q16288 32-429, limits assumed) (assay: binding titration on trkC point mutants).
T7 construct: point mutant in domain 5
T7 sequence (Q16288 32-429 S70N/H349A limits assumed): as the sequence (Q16288 32-429 S70N) above, with H318A counted along it

Binder	ratio EC50 mutant/EC50 wildtype trkC [ratio]
B1	0.8
B2	1
B3	0.7
B4	0.7
B5	0.8

These binders were tested against T8, trkC mutant N335A (human, UniProt Q16288 32-429, limits assumed) (assay: binding titration on trkC point mutants).
T8 construct: point mutant in domain 5
T8 sequence (Q16288 32-429 S70N/N366A limits assumed): as the sequence (Q16288 32-429 S70N) above, with N335A counted along it

Binder	ratio EC50 mutant/EC50 wildtype trkC [ratio]
B1	0.5
B3	1.5
B4	0.3
B5	0.5

Each binder was assayed against T1, gD-tagged trkC (human trkC-gD) (assay: SPR (BIAcore), gD-trkC over immobilized IgG).

Binder	Kd [nM]
B1	51
B4	28
B5	300

These binders were tested against T1, gD-tagged trkC (human trkC-gD) (assay: SPR (BIAcore), IgG over immobilized gD-trkC (400-600 RU)).

Binder	Kd [nM]
B1	42
B2	12
B3	23
B4	12
B5	62

What follows are binders tested against T3, trkC mutant L284E (assay: binding to trkC point mutants (NB = no binding observed)).

Binder	binding result
B2	no binding
B3	no binding
B4	no binding

The binders below were run against T4, trkC mutant R285A in the same assay as above.

Binder	binding result
B5	no binding

What follows are binders tested against T5, trkC mutant L286H in the same assay as above.

Binder	binding result
B4	no binding

These binders were tested against T6, trkC mutant E287K in the same assay as above.

Binder	binding result
B2	no binding
B3	no binding
B4	no binding

These binders were tested against T8, trkC mutant N335A in the same assay as above.

Binder	binding result
B2	no binding

Each binder was assayed against wildtype trkC (reference of Table 5) (human, UniProt Q16288 32-429, limits assumed) (assay: binding titration on trkC point mutants; wildtype reference row).
Sequence of wildtype trkC (reference of Table 5) (Q16288 32-429 S70N limits assumed): as the sequence (Q16288 32-429 S70N) above

Binder	ratio EC50 mutant/EC50 wildtype trkC [ratio]
B1	1
B2	1
B3	1
B4	1
B5	1

What follows are binders tested against T1, gD-tagged trkC (human trkC-gD) (assay: competition ELISA on gD-trkC; competitor: unlabelled 2250 (50 µg/ml); biotin-MAb 1 µg/ml; SA-HRP;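 note: negative control competitors were unlabelled human IgG2 and mouse IgG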).
Method: (§1) A competition ELISA was used to get preliminary information about various groups to which these antibodies belong depending on the epitope(s) on trkC they recognize. In this assay, trkC-gD (1 μg/ml) was used as a capture antigen to coat microliter plate. A specific biotinylated anti-trkC monoclonal antibody (1 μg/ml) was added to the coated plate either alone or in presence of another anti-trkC monoclonal antibody that was unlabeled and used in excess (50 μg/ml) as compared to the labeled antibody. If biotinylated antibody and unlabeled antibody both recognize the same or overlapping epitope, they will compete for binding to the immobilized trkC, resulting in decreased binding of the labeled antibody. If they recognize different and non-overlapping epitopes, there will be no competition between them, and the binding of the labeled antibody to the immobilized trkC will not be affected. Unlabeled human IgG2 and mouse IgG were used as negative control.

Binder	signal of the biotin-MAb in the competition ELISA
B1	1.24
B2	0.04
B3	0.02
B4	0.1
B5	0.01

These binders were tested against T1, gD-tagged trkC (human trkC-gD) (assay: competition ELISA on gD-trkC; competitor: unlabelled 2253 (50 µg/ml); biotin-MAb 1 µg/ml; SA-HRP;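 note: negative control competitors were unlabelled human IgG2 and mouse IgG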).
Method: as §1

Binder	signal of the biotin-MAb in the competition ELISA
B1	0
B2	0.07
B3	0.03
B4	0.03
B5	0.02

Each binder was assayed against T1, gD-tagged trkC (human trkC-gD) (assay: competition ELISA on gD-trkC; competitor: unlabelled 2256 (50 µg/ml); biotin-MAb 1 µg/ml; SA-HRP;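 note: negative control competitors were unlabelled human IgG2 and mouse IgG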).
Method: as §1

Binder	signal of the biotin-MAb in the competition ELISA
B1	1.34
B3	0.02
B4	0.1
B5	0.02

The binders below were run against T1, gD-tagged trkC (human trkC-gD) (assay: competition ELISA on gD-trkC; competitor: unlabelled 2345 (50 µg/ml); biotin-MAb 1 µg/ml; SA-HRP;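 note: negative control competitors were unlabelled human IgG2 and mouse IgG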).
Method: as §1

Binder	signal of the biotin-MAb in the competition ELISA
B1	1.4
B2	0.04
B3	0.01
B4	0.12

The binders below were run against T1, gD-tagged trkC (human trkC-gD) (assay: competition ELISA on gD-trkC; competitor: unlabelled 2349 (50 µg/ml); biotin-MAb 1 µg/ml; SA-HRP;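 note: negative control competitors were unlabelled human IgG2 and mouse IgG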).
Method: as §1

Binder	signal of the biotin-MAb in the competition ELISA
B2	0.02
B3	0
B4	0.1
B5	0.07

These binders were tested against T1, gD-tagged trkC (human trkC-gD) (assay: competition ELISA on gD-trkC; competitor: unlabelled 2.5.1 (50 µg/ml); biotin-MAb 1 µg/ml; SA-HRP;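 note: negative control competitors were unlabelled human IgG2 and mouse IgG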).
Method: as §1

Binder	signal of the biotin-MAb in the competition ELISA
B1	1.4
B2	0.17

Each binder was assayed against T1, gD-tagged trkC (human trkC-gD) (assay: competition ELISA on gD-trkC; competitor: unlabelled 6.1.2 (50 µg/ml); biotin-MAb 1 µg/ml; SA-HRP;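 note: negative control competitors were unlabelled human IgG2 and mouse IgG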).
Method: as §1

Binder	signal of the biotin-MAb in the competition ELISA
B2	0.11
B3	0.04
B5	0.13

These binders were tested against T1, gD-tagged trkC (human trkC-gD) (assay: competition ELISA on gD-trkC; competitor: unlabelled 6.4.1 (50 µg/ml); biotin-MAb 1 µg/ml; SA-HRP;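 note: negative control competitors were unlabelled human IgG2 and mouse IgG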).
Method: as §1

Binder	signal of the biotin-MAb in the competition ELISA
B3	0.03
B4	0.07
B5	0.12
